Experimental data reported in patent US20230382979A1 (ADAPTIVE BIOTECHNOLOGIES, published 2023).
Where two headings read alike, the source gives them in different places.

T1: MERS-COV (S1+S2)
T1 chain: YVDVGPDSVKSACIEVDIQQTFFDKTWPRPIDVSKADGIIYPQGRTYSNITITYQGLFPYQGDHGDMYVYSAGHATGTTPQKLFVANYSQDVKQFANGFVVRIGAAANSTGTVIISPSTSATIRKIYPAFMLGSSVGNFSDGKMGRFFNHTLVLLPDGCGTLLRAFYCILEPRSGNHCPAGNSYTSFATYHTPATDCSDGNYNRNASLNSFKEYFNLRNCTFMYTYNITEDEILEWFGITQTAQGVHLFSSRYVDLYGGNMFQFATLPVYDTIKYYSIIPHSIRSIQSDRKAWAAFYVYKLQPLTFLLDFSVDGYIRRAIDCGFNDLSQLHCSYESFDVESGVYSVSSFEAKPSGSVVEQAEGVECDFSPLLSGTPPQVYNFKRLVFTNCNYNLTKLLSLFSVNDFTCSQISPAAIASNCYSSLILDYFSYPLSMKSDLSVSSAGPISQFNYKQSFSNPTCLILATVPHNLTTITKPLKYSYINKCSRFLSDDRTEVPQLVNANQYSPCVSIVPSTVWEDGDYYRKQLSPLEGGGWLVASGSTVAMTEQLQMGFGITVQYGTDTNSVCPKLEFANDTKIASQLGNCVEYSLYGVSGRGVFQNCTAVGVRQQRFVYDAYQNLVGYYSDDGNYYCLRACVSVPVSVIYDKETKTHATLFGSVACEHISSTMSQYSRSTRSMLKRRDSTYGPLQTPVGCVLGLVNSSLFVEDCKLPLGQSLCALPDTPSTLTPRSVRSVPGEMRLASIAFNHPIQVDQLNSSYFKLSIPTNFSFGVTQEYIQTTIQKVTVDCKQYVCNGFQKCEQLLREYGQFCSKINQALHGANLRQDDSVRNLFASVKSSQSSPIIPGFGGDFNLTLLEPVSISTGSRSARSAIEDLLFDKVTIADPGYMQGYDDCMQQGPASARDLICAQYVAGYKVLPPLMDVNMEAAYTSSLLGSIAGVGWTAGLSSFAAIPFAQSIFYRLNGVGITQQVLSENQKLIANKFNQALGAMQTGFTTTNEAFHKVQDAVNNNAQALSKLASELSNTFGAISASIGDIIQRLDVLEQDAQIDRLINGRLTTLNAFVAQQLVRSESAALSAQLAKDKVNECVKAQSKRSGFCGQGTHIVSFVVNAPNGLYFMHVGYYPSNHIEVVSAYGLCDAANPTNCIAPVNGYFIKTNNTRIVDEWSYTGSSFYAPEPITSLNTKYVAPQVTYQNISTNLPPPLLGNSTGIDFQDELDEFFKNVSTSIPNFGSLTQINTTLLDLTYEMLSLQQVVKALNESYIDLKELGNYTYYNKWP

T2: MERS-COV (S2)
T2 chain: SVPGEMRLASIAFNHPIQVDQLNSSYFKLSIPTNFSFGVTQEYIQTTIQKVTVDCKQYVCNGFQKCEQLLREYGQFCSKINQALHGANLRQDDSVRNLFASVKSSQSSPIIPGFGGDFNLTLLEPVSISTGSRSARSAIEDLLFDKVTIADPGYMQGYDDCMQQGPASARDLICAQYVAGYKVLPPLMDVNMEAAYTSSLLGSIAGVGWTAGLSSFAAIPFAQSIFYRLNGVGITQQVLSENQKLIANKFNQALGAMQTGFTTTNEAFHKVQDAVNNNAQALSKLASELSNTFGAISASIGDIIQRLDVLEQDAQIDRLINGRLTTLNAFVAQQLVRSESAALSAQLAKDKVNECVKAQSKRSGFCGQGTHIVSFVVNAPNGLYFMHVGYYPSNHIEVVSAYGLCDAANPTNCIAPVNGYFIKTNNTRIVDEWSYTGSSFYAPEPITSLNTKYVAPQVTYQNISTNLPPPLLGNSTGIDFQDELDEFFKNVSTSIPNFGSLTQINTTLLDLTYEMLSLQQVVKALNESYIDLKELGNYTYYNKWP


Columns and labels:
[1] = molecular target: T3, S2 subunit of the SARS-CoV-2 spike protein, WA01/2020 strain (SARS-CoV-2, WA01/2020 strain, UniProt P0DTC2 686-1213); assay: ELISA on S2 (S2 Binding EC50)
[2] = molecular target: SARS-CoV-2 spike protein, WA1/2020, borne on lentiviral pseudovirus (SARS-CoV-2, WA01/2020 strain, UniProt P0DTC2 14-1273); assay: cell-based or functional assay
[3] = molecular target: SARS-CoV (2003) spike protein borne on lentiviral pseudovirus (SARS-CoV (2003), UniProt P59594 14-1255); assay: cell-based or functional assay
MERS-COV (S1+S2) [4] = molecular target: T1, MERS-COV (S1+S2); assay: dose-response ELISA on coated spike antigen
MERS-COV (S2) [5] = molecular target: T2, MERS-COV (S2); assay: dose-response ELISA on coated spike antigen
[6] = molecular target: T4, S1 subunit of the SARS-CoV-2 spike protein, WA01/2020 strain (SARS-CoV-2, WA01/2020 strain, UniProt P0DTC2 16-685); assay: ELISA screening, antibody concentration not given
[7] = molecular target: T5, SARS-CoV-2 nucleocapsid (N) protein (SARS-CoV-2, UniProt P0DTC9 1-419); assay: ELISA screening, antibody concentration not given
[8] = molecular target: T3, S2 subunit of the SARS-CoV-2 spike …; assay: dose-response ELISA; antigen taken from the column 'Structural data'
MERS-COV (S1+S2) [9] = molecular target: T1, MERS-COV (S1+S2); assay: dose-response ELISA on coated spike antigen
MERS-COV (S2) [10] = molecular target: T2, MERS-COV (S2); assay: dose-response ELISA on coated spike antigen
[11] = molecular target: T4, S1 subunit of the SARS-CoV-2 spike …
[12] = molecular target: T4, S1 subunit of the SARS-CoV-2 spike …; assay: dose-response ELISA; antigen taken from the column 'Structural data'
[13] = molecular target: T6, SARS-CoV-2 spike (S) protein trimer, WA01/2020 strain (SARS-CoV-2, WA01/2020 strain, UniProt P0DTC2 16-1213)
[14] = molecular target: T3, S2 subunit of the SARS-CoV-2 spike …; assay: ELISA, antibody at 0.1 ug/mL
[15] = molecular target: T4, S1 subunit of the SARS-CoV-2 spike …; assay: ELISA, antibody at 0.1 ug/mL
[16] = molecular target: T5, SARS-CoV-2 nucleocapsid (N) protein; assay: ELISA, antibody at 0.1 ug/mL
[17] = molecular target: T6, SARS-CoV-2 spike (S) protein trimer, …; assay: dose-response ELISA; antigen taken from the column 'Structural data'

| Binder | EC50 [1] | Pseudo Neut, WA1/2020 IC50 (pM) [2] | Pseudo Neut, SARS-CoV 2003 IC50 [3] | binding result [6] | binding result [7] | EC50 [8] | other results |
| --- | --- | --- | --- | --- | --- | --- | --- |
| antibody 1872 (antibody, V domains shown) VH: EVQLVESGGGLVKPGGSLRLSCAASGFSFSLYTMNWVRQAPGKGLEWVSYISSSSSYRYYADSVKGRFSVSRDNAKNALYLQMNGLRAEDTAVYYCARDGYCPRGVCTYYGMDVWGQGTTVTVSA VL: EIVMTQSPATLSVSPGERATLSCRASQSVGSRLAWYQQKPGQAPRLLIYDATIRATGIPARFSGSGSGTDFTLTISGLQSEDFAVYYCQRYNNWPPAYTFGQGTKLEIK | 0.071 nM | 133 pM | 27 nM | no binding (tested: not printed) | no binding (tested: not printed) | 0.071 nM | binding result (MERS-COV (S1+S2) [4]): no binding (tested: 10000 ng/ml); binding result (MERS-COV (S2) [5]): no binding (tested: 10000 ng/ml) |
| antibody 1859 (antibody, V domains shown) VH: EVQLVESGGGLVKPGGSLRLSCAASGFSFNTYTMNWVRQAPGKGLEWVSYISSSSSYKYYSDSVKGRFSVSRDNAKKSLYLQMNGLRAEDTAVYYCARDGYCPNGVCTYYGMDVWGQGTTVTVSL VL: EIVMTQSPATLSVSPGERATLSCRASQSVSSNLAWYQQKPGQAPRLLIYGASTRATGIPARFSGSGSGTEFTLTISGLQSEDFAVYFCQQYSKWPPAYTFGQGTKLEIK | 1.22 nM | 889 pM | 115 nM | no binding (tested: not printed) | no binding (tested: not printed) | 1.22 nM | binding result (MERS-COV (S1+S2) [9]): no binding (tested: 10000 ng/ml); binding result (MERS-COV (S2) [10]): no binding (tested: 10000 ng/ml) |
| antibody 2080 (antibody, V domains shown) VH: QVQLQQWGAGLLKPSETLSLTCAVYGGSFSGYYWSWIRQPPGKGLEWIGRINDIGSTDYNPSLKSRVTISVDTSKNQFSLKLTSVTAADTAVYYCAREPFDSEGTFDYWGQGTLVIVSS VL: DIQMTQPPSTLSASVGDRVTITCRASQSISRWLAWYRQKPGKAPKLLIYDASSLQSGVPSRFSGSGSGTEFTLTISSLQPDDLATYYCQQYNTYPYTFGQGTKLEIK |  |  |  |  |  |  | Kd [11]: 0.69 nM; EC50 [12]: 0.025 nM |
| antibody 2024 (antibody, V domains shown) VH: QVQLVQSGAEVKKPGASVKVSCKVSGYTLIELSMHWVRQAPGKGLEWMGGFDPEEGETIYAQKFQGRVTMTEDTSTDTAYMELSSLRSEDTAVYYCTTSPPVGATGAWFDPWGQGTLVTVSA VL: SYVLTQPPSVSVAPGKTARITCGGNNIGSKSVHWYQQKPGQAPVLVVYDDSDRPSGIPERFSGSNSGNTATLTISGLQAEDEADYYCSSYTSSSTVVFGGGTKLTVL |  |  |  |  |  |  | Kd [13]: 15.6 nM; binding result [14]: no binding (tested: 0.1 ug/mL); binding result [15]: no binding (tested: 0.1 ug/mL); binding result [16]: no binding (tested: 0.1 ug/mL); EC50 [17]: 1.15 nM |
